Results reported in the nanobody polyreactivity screen of Harvey et al. (2022).

Assay: yeast display, Sf9 membrane polyspecificity reagent, FACS + sequencing; frameworks hold sequencing errors
Procedure, shortened: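 Synthetic nanobody libraries on Saccharomyces cerevisiae BJ5465 were galactose-induced for 36–48 hours, stained 1 hour at 4 °C with 10% biotinylated, detergent-solubilized Sf9 membrane reagent and enriched on streptavidin microbeads. FACS then separated cells into low and high (top ~1%) gates by anti-HA (expression) and streptavidin (reagent binding) fluorescence. Genes were colony-PCR amplified, MiSeq 2 × 250 sequenced and CDR-length filtered. A clone's polyreactivity label is that of its gate of origin.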

Sequence	polyreactivity (PSR sort gate)
QVQLVESGGGLVQAGGSLRLSCAASGITFGDYTMGWYRQAPGKERELVAVISSGGNTNYADSVKGRFTISRDNAKNTVYLQMNSLKPEDTAVYYCAAVIASYGTRYRGGYTRYYYWGQGTQVTVSS	high polyreactivity
QVQLVESGGCLVHAGGSHRLRCAASGSTFSRYAMGWYRHAPGKERELVAAISSSGGSTYYADSVKGRFTISRDNAKNTVYLQMNSLKPEDTAVYYCAARIWRTRRYDYWGQGTQVTVSS	high polyreactivity
QVQLVESGGRLVHAGGSLRLSCAASGFTFSDYAMGGYRQEPGKERELVAAISTRGSSTYYADSVKGLFTISRDNEKTTVYLEMNSLKPEDTAVYYCNAVGSYSGYYYWGQGNQVTVSS	high polyreactivity
QVQLVESGGGLVQAGGSLRLSCAASGFTFVAYAMGWYRQAPGKERELVAAISRRGGTTYYADSVKGRFTISRDNAKNTVYLQMNSLKPEDTAVYYCNARGFPGKFGYWGQGTQVTVSS	high polyreactivity
QVQLVESGGGLVQAGGSLRLSCAASGSIFRTNAMGWYRQAPGKERELVAAITTSGVTTYYADSVKGRFTISRDNPTNTVYLQMNSLKPEDTAVYYCNARDGRYLPRYDYWRQGTQVTVSS	low polyreactivity
QVQRVESAGGLVQAGGSLRLSSAASGFTFRRYAMGWYRQARGKERELVARITWSGTSTDYADSEKGRFTISRDNAKNTVYLQMNSLKPEDTAVYYCAKAYTPWSGRYFAGVGYYYWGQGTQVTVSS	high polyreactivity
QVQLVESGGGLVQAGGSLRLSCAASGSIFSRNVMGGSRQAPGKERELVAAITGSGGRTYYADSVKGRFTISRDNAKNTVYLQMNSLKPEDTAVYYCAKSRPGPYDYWGQGTQVTVSS	high polyreactivity
QVQLVESGGGLVQAGRSLRLRCPASGLTINSYAMGWYRQAPGKERELVAAIDWSGGRTYYADSVKGRFTISRDNAKNTVYLQMNSLKPEDTAVYYCAAYSRNRALRFNYWGQGTQVTVSS	high polyreactivity
QVQLVESGVCLVQAGGSLLLSCAASRRIFRNAMGWYRHAPGKERELVAAISSGGTTNYADSVKGRFTISRDNAKNTVYLLMNSLKPEDTAVYYCAAAPSSYRYRYVVFTFGYWGQGTQVTVSS	high polyreactivity
QVQLVDSGGGLVQAGGSLRISCAASGSIFPSNAMGWYRQAPGKERELVAAINRDGITNYADSVKGRFTISRDNAKNTVYLQMNSLKPEDTAVYYCAAEFAGQWWEYGYWGQGTQVTESS	low polyreactivity
QVQLVESGGGLVQAGGSLRLSCAASGFTFSFYAMGWYRQAPGKERELVAAISSGGRTSYADSVKGRFTISRDNAKNTVYLQMNSLKPEDTAVYYCAASYPGRYWLYRYEYWGQGTQVTVSS	high polyreactivity
QVQLVESGGGLVQAGGSLRLTCAASGSTFVRYAMGWYRQAPGKERELVATIRRVGSTNYADSVKGRFTISRDNAKNTVYLQMNSLKPEDTEVYYCAARSLRYGRGMYYWGQGTQVTVSS	high polyreactivity
QVQLVESGGGLVQAGGSLRISCAASGFTFVYNTMGWYRQAPGKERELVAAITSRGGSTYYADSVKGRFTISRDNAKNTVYLQMYSLKPEDTAVYYCAAKISVRTSGTRYYYWGQGTQVTVSS	high polyreactivity
QVQLVESGGGLVQAGGSLRLSCAASGLTFVGNAMGWYRQAPGKERELVAAISRSGGRTYYADSVKGRFTISRDNAKNTVYLQMNSLKPEDTAVYYCAAPYRSYDWYDYWGQGTQVTVSS	high polyreactivity
QVQLEESRGCLVQAGGSLRLSCAASGSIFYVYAMGWYRQAPGKERELVAAINTSGGSTYADSVMGRFTISRDNAKNTVYLQMNILIPEDNAFYYCAADGYYEYTWGEYDSWGQGTQVTVSS	low polyreactivity
QVQLVESRGGLVQAGGSLRLSCAASGRTFLYNAMGWYRQAPGKERELVAAITDGGNTYYADSVKGRFTISRDNAKNTVYLHMKSLNPEDTAVYYCNAYVLFYTYFTRGRFDFDYWGQGTQVTVSS	low polyreactivity
RVHLVESGGGLVQAGGSLRLSCAASGRIFDNYVMGWYRQAPGKESELVAAISSGGGTYYADSVKGRFTISRDNAKNTVYLQMKSLKPEDTAVYFCAKRRVFDRSFGRYDYWGQGTQVTVSS	low polyreactivity
